Results on eight molecules are retold here after publication PMC11477141, “Chemokine Receptor N-Terminus Charge Dictates Reliance on Post-Translational Modifications for Effective Ligand Capture and Following Boosting by Defense Peptides” (International Journal of Molecular Sciences, 2024).

In one assay the target is T1, CCR1 (Homo sapiens, UniProt P32246).
T1 construct: expressed in transfected cells; host or cells: CHO-K1, CHO-pgsB618 (GAG-minus), HEK293 WT / DeltaSia / sC
T1 sequence (P32246 1-355): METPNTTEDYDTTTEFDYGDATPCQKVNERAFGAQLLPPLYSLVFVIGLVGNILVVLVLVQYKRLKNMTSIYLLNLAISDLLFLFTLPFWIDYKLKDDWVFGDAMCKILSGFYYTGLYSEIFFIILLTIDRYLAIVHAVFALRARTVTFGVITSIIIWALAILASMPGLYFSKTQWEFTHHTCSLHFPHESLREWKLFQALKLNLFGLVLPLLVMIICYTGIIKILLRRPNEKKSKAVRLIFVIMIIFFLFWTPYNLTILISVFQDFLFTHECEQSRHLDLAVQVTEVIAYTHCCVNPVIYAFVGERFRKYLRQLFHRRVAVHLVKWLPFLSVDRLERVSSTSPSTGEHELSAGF
As to the kind of experiment: BRET CAMYEL cAMP sensor assay of ligand-induced Gαi signaling via CCR1. The assay is classed as cell-based. To be noted: n = 3; for Gαi signaling via CCR1 in DeltaSia and sC cells: CCL5 oligomerization variants experiment; for Gαi signaling via CCR1 compared to WT CCL5: HEK293 WT cells. As to the method:
(§1) For quantification of signaling initiated immediate downstream of receptor activation, we used the cAMP binding CAMYEL sensor to perform bioluminescence resonance energy transfer (BRET)-based assays. Shortly, in this assay increased receptor activation leads to an increase in BRET ratio. For detailed information see the Materials and Methods section.
(§2) In signaling assays testing the boosting ability of basic peptides, transfected cells were aliquoted into 96-well plates in the presence of 10 µM peptide or PBS vehicle. After R-Luc substrate addition, chemokines were added to reach final concentrations ranging from 0–100 nM (0, 0.1, 1, 10, and 100 nM) and forskolin was applied before reading emission at 475 and 525 nm.
(§3) BRET measurements of Gαi signaling and β-arrestin recruitment: Cells were seeded in 6-well plates (500,000 cells/well) and transiently transfected the following day. For BRET measurements of Gαi signaling, cells were transfected with vectors encoding the human chemokine receptors as indicated (160 ng/well) and the CAMYEL sensor (cAMP sensor, YFP-Epac-RLuc) (840 ng/well) using Lipofectamine (6 µL/well). Briefly, DNA was dissolved in 125 µL OPTI-MEM and Lipofectamine was dissolved in 125 µL OPTI-MEM. The DNA and Lipofectamine solutions were combined into a transfection mixture. The transfection mixture was added dropwise to cells incubated in OPTI-MEM (1 mL/well). Transfections were terminated after 5 h by adding 1 mL of fresh culture medium on top of the OPTI-MEM. The following day the cells were loosened from the plates in PBS with 5 mM glucose and subsequently aliquoted in white 96-well iso plates (~25,000 cells/well). When using C21TP variants and defense peptides (hBD2 and histatin), these were added to a final concentration of 10 μM/well, while an equal amount of PBS was added to control cells. The bioluminescence substrate coelenterazine was added to a final conc. of 5 µM. After 10 min, varying ligand concentrations were added. For BRET measurements of Gαi signaling, forskolin was added 5 min after the addition of the ligand, to a final conc. of 5 µM. The plates were kept in the dark at all times. A Perkin Elmer Envision machine was used for measuring the emission signals at 530 and 480 nm. The BRET signal is determined as the ratio eYFP (530 nm)/Rluc (480 nm).
(§4) BRET principle with CAMYEL: For quantification of signaling initiated immediately downstream of receptor activation, we used the cAMP binding CAMYEL sensor to perform bioluminescence resonance energy transfer (BRET) based assays. In this assay we measure changes in intracellular cAMP levels in response to receptor activation. Activation of chemokine receptors lead to a decrease in cAMP through inhibition of adenylate cyclase (AC). In the current setup we initially add forskolin that stimulates AC directly to induce an increase in intracellular cAMP, and we then measure the ability of a ligand (chemokine) to counteract the forskolin-induced increase in cAMP. The cAMP sensor (CAMYEL cAMP sensor, YFP-Epac-RLuc) carries the donor Renilla luciferase (Rluc) and the acceptor YFP. Coelenterazine is a substrate for Rluc that will emit light at around 475 nm upon enzymatic cleavage catalyzed by Rluc. When Rluc and YFP are in close proximity, the energy from the emitted light from coelenterazine can be transferred to YFP, resulting in an excitation of YFP, leading to a BRET signal around 525 nm. EPAC is a cAMP binding protein that changes conformation upon cAMP binding. During low cAMP concentrations, Rluc and YFP are near each other, and a strong BRET signal at 525 nm is obtained. When cAMP levels increase, cAMP will bind to EPAC, creating a conformational change, separating Rluc and YFP, reducing the BRET ratio, and increasing the emission from Rluc at 475 nm. Thus, by measuring the ratio between the cAMP-bound (475 nm) and the cAMP-free (525 nm) state of CAMYEL we obtain a measure of receptor activation. […]

The target in another assay is naked CCR1 N-terminus (Homo sapiens, UniProt P32246). The assay can be described thus: Fluorescence polarization binding to FAM-labeled CCR1 N-terminal peptide. To be noted: FAM-labeled CCR1 N-terminal peptide. On the procedure:
(§5) Fluorescence polarization (FP) assay: The carboxyfluorescein (FAM)-labeled peptides representing the CCR1 and CCR5 N-termini functioned as the probes for quantifying the interaction between the receptor N-terminus and C21TP^81-111. The probe was diluted in FP buffer (1:3, PBS:MilliQ) and 10 µL was added to a final concentration of 250 nM per well in a black 384-well plate (Corning). The C21TP^81-111 peptide (2 mM) was diluted using a two-fold dilution series; 30 µL of the peptide was added to each well to final concentrations ranging from 12.21 nM to 100 µM. Blanks containing 10 µL probe and 30 µL FP buffer were included. The plate was spun down at 1000 rpm for 1 min and the FP signal was measured on a Flex station using SoftMax Pro software 7.0. Each experiment was conducted in triplicate. The binding curves were generated by plotting the FP signal, expressed as millipolarization units (mP), against C21TP^81-111 concentration. The dissociation constant (Kd) value was calculated using GraphPad Prism 9.
(§6) Probes: • CCR1: (5,6-FAM)-[…], • CCR5: (5,6-FAM)-ADYQVSSPIYDINYYTSEP.

Another assay relates to naked CCR5 N-terminus. As to the kind of experiment: Fluorescence polarization binding to FAM-labeled CCR5 N-terminal peptide. Set-up: species or system human. On the procedure:
as §5, §6

Another assay has as its system CCR2. To be noted: cited from earlier work. The source says:
The reliance on electrostatic interactions between basic amino acids in the chemokine and acidic regions in the receptor N-terminus for chemokine receptor binding is illustrated by a study carried out by Hemmerich et al.. To investigate the influence of charge, hydrophobicity, and aromaticity on binding of CCL2 to its cognate receptor CCR2, this group substituted all surface-exposed residues on CCL2 by alanine. […] In contr ...

The next assay concerns the target T2, CCR5 (Homo sapiens, UniProt P51681).
T2 construct: expressed in transfected cells; host or cells: CHO-K1, CHO-pgsB618 (GAG-minus), HEK293 WT / DeltaSia / sC
As to the kind of experiment: BRET CAMYEL cAMP sensor assay of ligand-induced Gαi signaling via CCR5. The assay is classed as cell-based. To be noted: n = 3; for Gαi signaling via CCR5 in DeltaSia cells compared to WT cells: HEK293 DeltaSia (ST3GAL1/2 KO); for Gαi signaling via CCR5 in sC cells compared to WT cells: HEK293 sC (C1GALT1 KO); for Gαi signaling via M1-CCR5 in DeltaSia and sC cells compared to WT cells: M1-tagged CCR5, HEK293 DeltaSia and sC; for Gαi signaling via CCR5 in DeltaSia and sC cells: HEK293 DeltaSia and sC, CCL5 oligomerization variants experiment; for Gαi signaling via CCR5 compared to WT CCL5: HEK293 WT cells. As to the method: as §1, §2, §3, §4

The next assay has as its system CCR5-1like. The assay can be described thus: BRET CAMYEL Gαi signaling via chimeric receptor M1-CCR5-1like. It is filed as cell-based, human. To be noted: HEK293 DeltaSia and sC, n = 3.
Description: To finally determine if the lack of acidic amino acids in the CCR5 N-terminus can explain the dependency of this receptor on O-glycosylation for effective ligand interaction, we constructed a CCR5 receptor chimera, where the most acidic N-terminal region of CCR1 was inserted into the CCR5 N-terminus, creating the chimeric receptor CCR5-1like (Figure 7).
Figure 7 Receptor N-termini representing CCR1, CCR5, and the chimeric CCR5-1like. The CCR1 N-terminus contains a lot of acidic amino acids (outlined in red) in the form of aspartic acid (D) and glutamic acid (E), whereas CCR5 only contains a few. The chimeric receptor CCR5-1like that contains part of the CCR1 receptor N-terminus (ETTTDYDE) resembles CCR1 with regard to acidic amino acid content and spacing, but they are not the same.
as §3
as §4, with “nm.” for “nm. EPAC is a cAMP binding protein that changes conformation upon cAMP binding. During low cAMP concentrations, Rluc and YFP are near each other, and a strong BRET signal at 525 nm is obtained. When cAMP levels increase, cAMP will bind to EPAC, creating a conformational change, separating Rluc and YFP, reducing the BRET ratio, and increasing the emission from Rluc at 475 nm. Thus, by measuring the ratio between the cAMP-bound (475 nm) and the cAMP-free (525 nm) state of CAMYEL we obtain a measure of receptor activation.”

The mark [1] stands for this setting: CHO-K1 cells, 10 µM peptide, chemokine 0-100 nM.

T2 sequence (P51681 whole entry): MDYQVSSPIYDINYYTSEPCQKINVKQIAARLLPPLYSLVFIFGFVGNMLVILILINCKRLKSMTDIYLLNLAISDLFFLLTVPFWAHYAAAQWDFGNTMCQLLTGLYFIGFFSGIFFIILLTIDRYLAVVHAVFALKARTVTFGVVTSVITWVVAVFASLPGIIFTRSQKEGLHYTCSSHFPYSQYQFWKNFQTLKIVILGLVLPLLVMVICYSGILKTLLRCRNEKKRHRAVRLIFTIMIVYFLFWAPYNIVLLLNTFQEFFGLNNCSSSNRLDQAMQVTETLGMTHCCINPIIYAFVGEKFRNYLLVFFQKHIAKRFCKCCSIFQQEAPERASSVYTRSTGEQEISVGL
naked CCR1 N-terminus, sequence (P32246 with tags, fused parts or gaps limits assumed): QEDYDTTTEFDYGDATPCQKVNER

With “histatin1: human host defense peptide, less basic than hBD2, from Caslo (DSHEKRHHGYRRKFHEKHHSHREFPFYGDYGSNYLYDN) [reference compound]”, in the assay with CCR1 (setting [1]), the “boosting of CCL5-induced Gαi signaling via CCR1” value is “also boosted the potency of both these chemokines, although to a lesser extent”; the “boosting of CCL7-induced Gαi signaling via CCR1” value was “also boosted the potency of both these chemokines, although to a lesser extent”; the “effect on CCL3-induced Gαi signaling via CCR1” value is listed as “not affected”. Further, the “binding to the naked CCR1 N-terminus” value with naked CCR1 N-terminus is “bind in a dose-dependent manner”. Further, the “binding to the naked CCR5 N-terminus” value in the assay with naked CCR5 N-terminus is recorded as “neither of the HDPs bound”.

As for “R24E: CCL2 with R24 substituted by glutamic acid (literature)”, the “reduction of CCL2 binding to CCR2 by substitution in CCL2” value (“reduction of CCL2 binding to CCR2” for short) in the assay with CCR2 is on record as at least 1600 fold.

In the case of “K35E: CCL2 with K35 substituted by glutamic acid (literature)”, the “reduction of CCL2 binding to CCR2” value in the assay with CCR2 is reported as at least 1600 fold.

For the molecule “R24A: CCL2 with R24A substitution (literature)”, the “reduction of CCL2 binding to CCR2” value with CCR2 was ~ 30 fold.

In the case of “CCL3: human chemokine from Peprotech, overall acidic”, in the assay with CCR5, the “Gαi signaling via CCR5 in DeltaSia cells compared to WT cells” value was “drastically reduced”; the “Gαi signaling via CCR5 in sC cells compared to WT cells” value was “drastically reduced”; the “Gαi signaling via M1-CCR5 in DeltaSia and sC cells compared to WT cells” value is “drastically reduced”. The “Gαi signaling via CCR1 in DeltaSia and sC cells compared to WT cells” value with CCR1 (HEK293 DeltaSia and sC) is “persists in DeltaSia and sC to almost the same high level as observed in WT cells”. The “Gαi signaling via M1-CCR5-1like in DeltaSia and sC cells compared to WT cells” value with CCR5-1like is “persists in DeltaSia and sC to almost the same high level as observed in WT cells”.

B1: E26A: mutant version of CCL5, obligate tetramer, expressed in E. coli (protein, UniProt P13501 24-91, looked up, variant E26A)
C-C motif chemokine 5: SPYSSDTTPCCFAYIARPLPRAHIKAYFYTSGKCSNPAVVFVTRKNRQVCANPEKKWVREYINSLEMS
On to B1, for which, in the assay with CCR5, the “Gαi signaling via CCR5 in DeltaSia and sC cells” value was “very low”; the “Gαi signaling via CCR5 compared to WT CCL5” value is recorded as “WT-like signaling”. Moreover, in the assay with CCR1 (HEK293 DeltaSia and sC), the “Gαi signaling via CCR1 in DeltaSia and sC cells” value was “remains high”. In addition, the “Gαi signaling via CCR1 compared to WT CCL5” value in the assay with CCR1 is reported as “WT-like signaling”.

B2: E66A: mutant version of CCL5, obligate dimer, expressed in E. coli (protein, UniProt P13501 24-91, looked up, variant E66A)
C-C motif chemokine 5: SPYSSDTTPCCFAYIARPLPRAHIKEYFYTSGKCSNPAVVFVTRKNRQVCANPEKKWVREYINSLAMS
modifications: also: obligate dimer
notes: mutant version of CCL5, obligate dimer, expressed in E. coli
Regarding B2, in the assay with CCR5, the “Gαi signaling via CCR5 in DeltaSia and sC cells” value was “very low”; the “Gαi signaling via CCR5 compared to WT CCL5” value is listed as “WT-like signaling”. For the same molecule, the “Gαi signaling via CCR1 in DeltaSia and sC cells” value in the assay with CCR1 (HEK293 DeltaSia and sC) is “remains high”. In the assay with CCR1, the “Gαi signaling via CCR1 compared to WT CCL5” value is recorded as “WT-like signaling”.

B3: CCL8: human chemokine from Peprotech (protein, UniProt P80075 24-99, looked up)
C-C motif chemokine 8: QPDSVSIPITCCFNVINRKIPIQRLESYTRITNIQCPKEAVIFKTKRGKEVCADPKERWVRDSMKHLDQIFQNLKP
As for B3, in the assay with CCR5, the “Gαi signaling via CCR5 in DeltaSia cells compared to WT cells” value was “drastically reduced”; the “Gαi signaling via CCR5 in sC cells compared to WT cells” value was “drastically reduced”; the “Gαi signaling via M1-CCR5 in DeltaSia and sC cells compared to WT cells” value is listed as “drastically reduced”. Further, in the assay on CCR5-1like, the “Gαi signaling via M1-CCR5-1like in DeltaSia and sC cells compared to WT cells” value was “persists in DeltaSia and sC to almost the same high level as observed in WT cells”.
